The supplement of paper PMC12764529
± gives the half width of the 95% confidence interval.

Legend:
[1] = folding stability dG unfold from chymotrypsin proteolysis; higher = more stable
Outline: (§1)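 Designed mini-proteins with no cysteine and under 80 residues were kept only if AlphaFold2 dimer inter-PAE was above 15. In a PA-tagged cDNA display construct, they were digested with trypsin and chymotrypsin and then sequenced. K50 was inferred by Bayesian fitting of counts, and unfolding free energy was derived per protease or combined against a sequence-predicted unfolded-state K50 and a shared folded-state K50.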

[2] = folding stability dG unfold from trypsin proteolysis; higher = more stable
Outline: as §1

[3] = folding stability dG unfold (combined trypsin and chymotrypsin); higher = more stable
Outline: as §1

## SAGMPKPIRLLVRNPETGKYFLVEVEEPEELVTVTLLDPETGEVRAVFEGPLEEIIAALEAEGFEVEPVSAG [r5_291_TrMRF]
[1]
  folding stability dG unfold: 4.438 ± 0.042 kcal/mol
[2]
  folding stability dG unfold: 4.47 ± 0.16 kcal/mol
[3]
  folding stability dG unfold: 4.442 ± 0.036 kcal/mol

## SAGMPKPLVLPVVLPDDGATVEVVFDPVEKRIEIRVFKPGHRERAREFAEGIAALFEELGYEVEITDDSAGG [r19_354_TrMRF]
[1]
  folding stability dG unfold: 1.27 ± 0.091 kcal/mol
[2]
  folding stability dG unfold: 2.3 ± 0.084 kcal/mol
[3]
  folding stability dG unfold: 1.91 ± 0.12 kcal/mol

## SAGMPLASVEVEIEKLPDGTYRVRARITIWDPVTGKPLREVEFEGPFESPEAAEAEALKKALEVLEADSAGG [r19_255_TrMRF]
[1]
  folding stability dG unfold: 4 ± 0.11 kcal/mol
[2]
  folding stability dG unfold: 4.25 ± 0.18 kcal/mol
[3]
  folding stability dG unfold: 4.06 ± 0.13 kcal/mol

## SAGMPPVKVEIEVYPVRVEGELLYIAKIVRPDGSVLVIAFKPEELIEAIKKEFPDIEEIKFSPFETPPESAG [r5_25_TrMRF]
[1]
  folding stability dG unfold: 3.579 ± 0.022 kcal/mol
[2]
  folding stability dG unfold: 3.3 ± 0.095 kcal/mol
[3]
  folding stability dG unfold: 3.48 ± 0.054 kcal/mol

## SAGMPYIKVKITVIHPDNKEKEAEFVFDLKDGKIDLKPEVIEKALEELGIPKDYEIKIEIVEIKEPDESAGG [r19_287_TrMRF]
[1]
  folding stability dG unfold: 2.82 ± 0.16 kcal/mol
[2]
  folding stability dG unfold: 2.5 ± 0.13 kcal/mol
[3]
  folding stability dG unfold: 2.81 ± 0.16 kcal/mol

## SAGMQLLPSATVTLTNPKTGETTTVSVQALRDELAARRGTTDPAAITEADIEAWAKEQGYDPITFTLPSAGG [r19_67_JUSTAS]
[1]
  folding stability dG unfold: 2.55 ± 0.027 kcal/mol
[2]
  folding stability dG unfold: 2.96 ± 0.069 kcal/mol
[3]
  folding stability dG unfold: 2.78 ± 0.076 kcal/mol

## SAGMSLEEIAKEFAKKKGLKKVEIKYYPEKKTYEIKVYLEEPGEPKTATIKVEDVTPETFKKAIEEILESAG [r5_896_TrMRF]
[1]
  folding stability dG unfold: 4.75 ± 0.16 kcal/mol
[2]
  folding stability dG unfold: 3.61 ± 0.32 kcal/mol
[3]
  folding stability dG unfold: 4.83 ± 0.41 kcal/mol

## SAGMSLEELAKELAKKLNIEKVEIKYDKETNKVTIKIYFKKNKKKITITIKKENMTPEEIKKLLEEILKSAG [r5_896_TrROS_Hall]
[1]
  folding stability dG unfold: 4.51 ± 0.098 kcal/mol
[2]
  folding stability dG unfold: 2.9 ± 0.12 kcal/mol
[3]
  folding stability dG unfold: 4.41 ± 0.19 kcal/mol

## SAGMSPELLEALRKAAEEEGLEVVEIKVEKLPNGEVKITIRLKNGKEIKEITLPKDVKTPEEALKLIRESAG [r5_352_TrROS_Hall]
[1]
  folding stability dG unfold: 4.04 ± 0.081 kcal/mol
[2]
  folding stability dG unfold: 4.82 ± 0.34 kcal/mol
[3]
  folding stability dG unfold: 4.31 ± 0.1 kcal/mol

## SAGMSVTLEFTDPDKSAEELKEEIMKKVGIPENYPVKVTETPSPADGYTLTITVDDPKVAEAIKKALSSAGG [r19_215_JUSTAS]
[1]
  folding stability dG unfold: 1.742 ± 0.016 kcal/mol
[2]
  folding stability dG unfold: 1.26 ± 0.037 kcal/mol
[3]
  folding stability dG unfold: 1.57 ± 0.066 kcal/mol

## SAGMTAEELAAEALAKLPPGAKEVTVEIEVNGELVTVTITVEAAPPPPPPEETITTVDEDTGEVREETLSAG [r5_236_TrROS_Hall]
[1]
  folding stability dG unfold: 0.119 ± 0.034 kcal/mol
[2]
  folding stability dG unfold: 1.44 ± 0.058 kcal/mol
[3]
  folding stability dG unfold: 0.854 ± 0.068 kcal/mol

## SAGMTEEELKKLKEKFPNLKIEPVKTITIKVEPNASVEEIAKKLKELLNIDKVEIEVNEETGEITIRIYSAG [r5_694_TrROS_Hall]
[1]
  folding stability dG unfold: 4.07 ± 0.16 kcal/mol
[2]
  folding stability dG unfold: 2.98 ± 0.15 kcal/mol
[3]
  folding stability dG unfold: 3.69 ± 0.23 kcal/mol

## SAGMTFEAEVKEKTIYIPEINNIIKIKIVNLKPPEGPIIPIIKIEFYVSENTTPEDIIKLLKELNIPVESAG [r5_486_TrMRF]
[1]
  folding stability dG unfold: 2.11 ± 0.024 kcal/mol
[2]
  folding stability dG unfold: 2.09 ± 0.16 kcal/mol
[3]
  folding stability dG unfold: 2.07 ± 0.099 kcal/mol

## SAGMTFPPGMTIEELKELLKKLGIKEVTVTYDKETNTVTVTVTVEGKTITITVTLPAPPVVVKEEGEEKSAG [r5_899_TrROS_Hall]
[1]
  folding stability dG unfold: 3 ± 0.1 kcal/mol
[2]
  folding stability dG unfold: 1.77 ± 0.059 kcal/mol
[3]
  folding stability dG unfold: 2.53 ± 0.17 kcal/mol

## SAGMTIRIVVPKKDMSVEELAKKLKEELGLPEDAKVTIKVEKLPNGELVLTITVPSEEERKKIEELLKSAGG [r19_215_TrROS_Hall]
[1]
  folding stability dG unfold: 2.91 ± 0.15 kcal/mol
[2]
  folding stability dG unfold: 2.9 ± 0.13 kcal/mol
[3]
  folding stability dG unfold: 2.98 ± 0.25 kcal/mol

## SAGMTIVIEIPSSTSYEDAVKAIKKIAKEIKEKGKKFKIVVLTKDPKIAEAIKKALEELGIPLEVKIGSAGG [r19_268_TrMRF]
[1]
  folding stability dG unfold: 2.91 ± 0.043 kcal/mol
[2]
  folding stability dG unfold: 2.77 ± 0.07 kcal/mol
[3]
  folding stability dG unfold: 2.93 ± 0.059 kcal/mol

## SAGMTLTIEVLIKVETPEEARKAAEELARRLAEEGYTVTVEVVKVEEVTLPDGSKYYRVTVKVTVEPAPSAG [r5_158_TrROS_Hall]
[1]
  folding stability dG unfold: 5.62 ± 0.15 kcal/mol
[2]
  folding stability dG unfold: 5.08 ± 0.38 kcal/mol
[3]
  folding stability dG unfold: 5.78 ± 0.31 kcal/mol

## SAGMTPDTTLPDLVVTIYSPDGTSTTYTFPNVTRVTEVDPETGKLTLYSPEGRTITLTLSPDEKVEIVGSAG [r5_762_JUSTAS]
[1]
  folding stability dG unfold: 3.024 ± 0.027 kcal/mol
[2]
  folding stability dG unfold: 2.45 ± 0.035 kcal/mol
[3]
  folding stability dG unfold: 2.84 ± 0.037 kcal/mol

## SAGMTPEEVAEELREKLGLKEVTIERDPAADTLTITVTLPSPGETKTAVVPASALTPEAIRELLLEVLSSAG [r5_896_JUSTAS]
[1]
  folding stability dG unfold: 2.4 ± 0.024 kcal/mol
[2]
  folding stability dG unfold: 2.77 ± 0.071 kcal/mol
[3]
  folding stability dG unfold: 2.58 ± 0.048 kcal/mol

## SAGMTSVEKRTLTFETEEEAEKEIKKIADELKKKGYKTEVKIEEVTKEKTEKGDSRYKVTATMKITKKESAG [r5_158_JUSTAS]
[1]
  folding stability dG unfold: 0.792 ± 0.14 kcal/mol
[2]
  folding stability dG unfold: 0.681 ± 0.074 kcal/mol
[3]
  folding stability dG unfold: 0.76 ± 0.17 kcal/mol

## SAGMTTTLTKTEKFPDGTTVTYTTVTAPDGTPLTATATYDPNNPNKATTTTTDPATGTTTTTTTTITGGSAG [r5_345_JUSTAS]
[1]
  folding stability dG unfold: 0.674 ± 0.11 kcal/mol
[2]
  folding stability dG unfold: 1.03 ± 0.065 kcal/mol
[3]
  folding stability dG unfold: 0.852 ± 0.12 kcal/mol

## SAGMTTVEVTRTFPADVPVTEEDLELAEKEREEIAAELPESYVVTLASVTYERRPDSWTVTATFTITAPSAG [r5_121_JUSTAS]
[1]
  folding stability dG unfold: 2.11 ± 0.06 kcal/mol
[2]
  folding stability dG unfold: 1.47 ± 0.017 kcal/mol
[3]
  folding stability dG unfold: 1.85 ± 0.045 kcal/mol

## SAGMTVEELRNLPPGYRVLEVKFDPETGKYTVVVERPDEDGVPHKVTIEVDGLEELEEFFKTGLTELKLSAG [r5_905_TrMRF]
[1]
  folding stability dG unfold: 0.897 ± 0.1 kcal/mol
[2]
  folding stability dG unfold: 1.73 ± 0.045 kcal/mol
[3]
  folding stability dG unfold: 1.35 ± 0.16 kcal/mol

## SAGMTVKTEVHTTTLPETGLVRTEETVTYPDGSVIRRTGDSNPETGEVTTTVTTPDGTLLATETTTITPSAG [r14_524_JUSTAS]
[1]
  folding stability dG unfold: 0.426 ± 0.033 kcal/mol
[2]
  folding stability dG unfold: -0.585 ± 0.072 kcal/mol
[3]
  folding stability dG unfold: 0.184 ± 0.048 kcal/mol

## SAGMTVTLPGDKSYTVTVKYTLYDADGKKLGEKTYTKTVTVAPNSTVTINIPNTYPNTVVTEVTVTPESAGG [r19_295_JUSTAS]
[1]
  folding stability dG unfold: 4.38 ± 0.092 kcal/mol
[2]
  folding stability dG unfold: 3.91 ± 0.35 kcal/mol
[3]
  folding stability dG unfold: 4.32 ± 0.13 kcal/mol

## SAGMTVTLTVSEAEFNALFGPDKDAEAIAAHLESQGYVIKSISTTSSTDPETGGRTLTITLDVEPPLVSAGG [r19_376_JUSTAS]
[1]
  folding stability dG unfold: 3.603 ± 0.036 kcal/mol
[2]
  folding stability dG unfold: 3.29 ± 0.09 kcal/mol
[3]
  folding stability dG unfold: 3.54 ± 0.071 kcal/mol

## SAGMVAEEARRRASPEELAAEEAPPRPPPPVTVVTVPREVAPEVLAALAAAEDVEVEERGDELVIRVVGSAG [r14_7_JUSTAS]
[1]
  folding stability dG unfold: 0.559 ± 0.1 kcal/mol
[2]
  folding stability dG unfold: -0.583 ± 0.39 kcal/mol
[3]
  folding stability dG unfold: 0.299 ± 0.19 kcal/mol

## SAGMVIAIKPGEPRILVSGLPPELVRRIAEELGAPDVVPVEPGVPAWTALENHPDPAAFLVIPPELALSAGG [r19_270_TrMRF]
[1]
  folding stability dG unfold: 0.393 ± 0.12 kcal/mol
[2]
  folding stability dG unfold: -0.822 ± 0.7 kcal/mol
[3]
  folding stability dG unfold: 0.0501 ± 0.15 kcal/mol

## SAGMVIAKVTVKLPNGETKTFVIEAESPEELEEQIIKELEKEYGVSPEEFPIVEIKVEFYDPEKGGLLLSAG [r5_482_TrMRF]
[1]
  folding stability dG unfold: 2.23 ± 0.033 kcal/mol
[2]
  folding stability dG unfold: 2.13 ± 0.089 kcal/mol
[3]
  folding stability dG unfold: 2.2 ± 0.11 kcal/mol

## SAGMVIKIKASEELRELLKKLGLSEEEVKKLKIKLKVNGKEVEVEVEVDKETGMIYVRFKDTGKTFKLPSAG [r5_545_TrROS_Hall]
[1]
  folding stability dG unfold: 1.32 ± 0.15 kcal/mol
[2]
  folding stability dG unfold: 1.61 ± 0.042 kcal/mol
[3]
  folding stability dG unfold: 1.53 ± 0.13 kcal/mol

## SAGMVIRLTSPTGSLEITITVEPDGETREAVVKAASGEEVSVIPPSVSVEEIKKRFPDVTASEEPLDLPSAG [r5_314_JUSTAS]
[1]
  folding stability dG unfold: 0.653 ± 0.038 kcal/mol
[2]
  folding stability dG unfold: 0.518 ± 0.037 kcal/mol
[3]
  folding stability dG unfold: 0.628 ± 0.071 kcal/mol

## SAGMVITETEELPDRTITTVKYSDGKVVIETLEYDPNSNVVTKTVTTIDLSNPSVSKTTTTVEPDPAPSAGG [r19_102_JUSTAS]
[1]
  folding stability dG unfold: 1.81 ± 0.063 kcal/mol
[2]
  folding stability dG unfold: 1.15 ± 0.099 kcal/mol
[3]
  folding stability dG unfold: 1.62 ± 0.092 kcal/mol

## SAGMVITLERTIPPTVSVSPEEAVAAIKAELEATPGVTVTAVNSVTVTPLPDGTLRVTVDIVVDRPEPSAGG [r19_396_JUSTAS]
[1]
  folding stability dG unfold: 2.634 ± 0.024 kcal/mol
[2]
  folding stability dG unfold: 2.23 ± 0.037 kcal/mol
[3]
  folding stability dG unfold: 2.53 ± 0.06 kcal/mol

## SAGMVIVIDKKKKKIYIFAPSKEMAEKIAKELNLKDVKVYEKGTSIEELLKKHPDVEKVIVLPAEELKSAGG [r19_270_TrROS_Hall]
[1]
  folding stability dG unfold: 2.87 ± 0.056 kcal/mol
[2]
  folding stability dG unfold: 1.45 ± 0.049 kcal/mol
[3]
  folding stability dG unfold: 2.65 ± 0.27 kcal/mol

## SAGMVKIEIEVKVEKDEDGRLRVTVRITIYDEKTGEKLKEIEIEVEAPSEEEAERAARKKAEELLKELSAGG [r19_255_TrROS_Hall]
[1]
  folding stability dG unfold: 2.58 ± 0.087 kcal/mol
[2]
  folding stability dG unfold: 3.9 ± 0.18 kcal/mol
[3]
  folding stability dG unfold: 3.25 ± 0.19 kcal/mol

## SAGMVKTEPDPNSDIVRRTFTVQVPVRIPPGEWRELTIEVPFDEVYGPGGVPVDPVSEEEIEAAIKALLSAG [r5_239_JUSTAS]
[1]
  folding stability dG unfold: 1.15 ± 0.087 kcal/mol
[2]
  folding stability dG unfold: 0.966 ± 0.037 kcal/mol
[3]
  folding stability dG unfold: 1.07 ± 0.096 kcal/mol
